According to patent US20060160761A1, “Regulation of vascular endothelium using BMX tyrosine kinase” (priority 1994, published 2006):
Entries after “also recorded” stand apart in the source; their conditions may differ.

Assays:
[1] = system: endogenous Bmx; assay: Kinase activity of endogenous Bmx immunoprecipitated from stimulated HUVECs, with or without PI-3 kinase inhibitors; type: cell-based, human; details: HUVECs starved overnight; hVEGF and VEGF-B 60 ng/ml for 5 min, IL-3 200 ng/ml for 30 min
Excerpt: The polyclonal antibody (Ab) against human Bmx was produced against the Tec Homology (TH) domain by Dr. Toshio Suda (amino acids 151-169, NH2-[…]—COOH (SEQ. ID. NO.: 4)). The monoclonal anti-hemagglutinin (HA)-epitope Ab, phosphotyrosine Ab, and anti-CD31 Ab were from Berkeley Antibody Company (Richmond, Calif.), from Transduction Laboratories and from DAKO, respectively. GCSF growth factor was a kind gift from Dr. Riitta Alitalo, while VEGF was obtained from R&D Systems, Minneapolis, Minn. VEGF-B was produced in Drosophila cells by Terhi Karpanen. Mouse IL-3 was obtained from Calbiochem Novabiochem. Phosphatidyl inositol-3 kinase inhibitors Wortmannin and LY294002, were both from Sigma. For inhibition of PI3K activity, 100 nM for 30 min of Wortmannin and 100 μM of LY294002 for 30 min, were used.
Cell culture and transfections. 293T cells were grown in Dulbecco's Modified Eagle's Medium (DMEM), Human umbilical vein endothelial cells (HUVECs) were maintained in Hy-clone 199 medium. […]
(§1) In vitro substrate immunocomplex kinase assay was performed as follows. […] The filters were fixed and washed one time in 10% TCA 8% sodium pyrophosphate, 3 times in 5% TCA and 2 times in ethanol after which radioactivity was measured using Pharmacia Wallac 1410 Liquid Scintillation Counter. […] The gel was dried and Bmx autokinase activity was detected by exposure on film.

[2] = system: Bmx; assay: In vitro substrate immunocomplex kinase assay of Bmx immunoprecipitated from stimulated BmxHA expressing 32Dcl3 cells; type: cell-based, mouse; details: BmxHA expressing 32Dcl3 pools, starved 14 hours in IL-3 and serum free media; IL-3 200 ng/ml for 30 min, hGCSF 100 ng/ml for 5 min; vs unstimulated
Procedure: Cell culture and transfections. 293T cells were grown in Dulbecco's Modified Eagle's Medium (DMEM), Human umbilical vein endothelial cells (HUVECs) were maintained in Hy-clone 199 medium. […] All media were supplemented with 10% fetal calf serum, glutamine and antibiotics, the Hy-clone 199 medium additionally with endothelial cell growth supplement-ECGS (Upstate Biotechnology). Where indicated, cells were stimulated with growth factors, hGCSF 100 ng/ml, hVEGF and VEGF-B 60 ng/ml, for 5 min or with mIL-3 or hIL-3, 200 ng/ml, for 30 min.
Transfections and generation of stable BmxHA and BmxHA K444R expressing pools (and clones). Transient co-transfections of293T cells were done using the Calcium Phosphate Transfection kit (GIBCO) according to manufacturer's instructions. The cells were transfected with Bmx-HA expression plasmid and the receptor plasmid or empty vector (PCI-Neo or pcDNAZ3.1) in the ration of 1:4. […]
as §1

VEGF
endogenous Bmx kinase activity after stimulation [1]: increased endogenous Bmx activity; also recorded: activated

B1: GCSF: GCSF growth factor (granulocyte growth factor), gift from Dr. Riitta Alitalo (protein)
chain: TPLGPASSLPQSFLLKCLEQVRKIQGDGAALQEKLCATYKLCHPEELVLLGHSLGIPWAPLSSCPSQALQLAGCLSQLHSGLFLYQGLLQALEGISPELGPTLDTLQLDVADFATTIWQQMEELGMAPALQPTQGAMPAFASAFQRRAGGVLVASHLQSFLEVSYRVLRHLAQP
increase of Bmx kinase activity [2]: around 1.7 fold

B2: VEGF-B: VEGF-B produced in Drosophila cells; ligand of Flt1 receptor (protein, UniProt P49765 22-207, looked up)
Vascular endothelial growth …: PVSQPDAPGHQRKVVSWIDVYTRATCQPREVVVPLTVELMGTVAKQLVPSCVTVQRCGGCCPDDGLECVPTGQHQVRMQILMIRYPSSQLGEMSLEEHSQCECRPKKKDSAVKPDRAATPHHRPQPRSVPGWDSAPGAPSPADITHPTPAPGPSAHAAPSTTSALTPGPAAAAADAAASSVAKGGA
endogenous Bmx kinase activity after stimulation [1]: increased endogenous Bmx activity; also recorded: activated
